Reference: patent publication US20130052729A1, “METHOD FOR PREPARING INDUCED PARAXIAL MESODERM PROGENITOR (IPAM) CELLS AND THEIR USE” (priority 2011, published 2013)
“Also recorded” adds a separate entry of the source.

How the values were obtained:
Msgn1RepV mES cells = test: iPAM induction in Msgn1RepV reporter mES cells (YFP+ cells, flow cytometry); format: cell-based, mouse; conditions: for effect on number of YFP+ cells: recombinant protein, 15% FBS, 4 days of differentiation
Method: ES cells were trypsinized and plated at various densities in gelatin coated, feeder-free, 24 well plates directly in serum-based (15% FBS) or serum-replacement (15% KSR, Invitrogen) conditions supplemented with factors, and DMSO (Sigma). Recombinant proteins were obtained commercially (R&D) and stock solutions were prepared according to manufacturer's recommendation. The GSK-3β inhibitor CHIR99021 was purchased from Stemgent and prepared according to the manufacturer's recommendations. Fluorescent reporter analysis and image acquisition were done on a Zeiss Axiovert system.
Cell cultures were dissociated by trypsinization, analyzed by flow cytometry on a FACScalibur (BD Biosciences) according to YFP expression. Data were further analyzed with MoFlo software (Beckman Coulter) and FlowJo software.
In order to follow the differentiation of ES cells toward the first stage of paraxial mesoderm differentiation (ie presomitic fate), which represents the first step of skeletal muscle differentiation after acquisition of a mesodermal identity, we generated a transgenic mouse ES cell line harboring a fluorescent reporter specifically expressed in paraxial mesoderm progenitors. We used the promoter from the mouse Msgn1, a gene specific for the presomitic mesoderm, to drive the expression of Venus (a modified YFP).
In order to optimize the differentiation conditions for paraxial mesoderm progenitors, we developed a manual screening assay, testing candidate growth factors and drugs interfering with various signaling pathways on ES cells. The Msgn1RepV reporter cells were plated at a defined density in 24-well plates coated with gelatin (0.1%). Two basal culture media were selected: a DMEM based medium containing 15% fetal bovine serum (FBS, high serum) and a defined serum-free medium containing 15% KSR (Invitrogen/Gibco). These basal media were supplemented with candidate factors on day 0 of differentiation. Control and experimental conditions were cultured in parallel. Cells were left to differentiate for three to four days with medium changed on day 2 or 3. Cell cultures were analyzed on day 3 and 4 of differentiation visually and by flow cytometry for YFP+ population quantification.

Wnt signaling = conditions: cited from earlier work
canonical Wnt signaling = test: BAT-luc luciferase reporter for canonical Wnt signaling in transfected ES cells; format: cell-based, mouse; conditions: Rspo3 10 ng/mL, low serum (1% FBS) medium
HUES1 cells = test: qRT-PCR of paraxial mesoderm progenitor markers in differentiating human ES cells; format: cell-based; conditions: 3 to 10 days of culture in 15% FBS containing medium
Method: Comparison of the expression of paraxial mesoderm progenitor markers Brachyury (A), PDGFRa (B), Tbx6 (C), Msgn1 (D) measured by Q RT-PCR in HUES1 undifferentiated or cultured in 15% FBS containing medium with or without Rspo3 for up to 10 days. Relative expression to undifferentiated HUES1 cells is shown (fold induction)
Total RNA was extracted from ES cell cultures using a Trizol reagent (Invitrogen) or with the Rnaeasy plus mini-kit (Qiagen). RT-PCR was performed on 5 ng total RNA using QuantiFast SYBR Green RT-PCR Kit (Qiagen), appropriate primers and run on a LightCycler 480II (Roche). GAPDH was used as the internal control.
Next, to confirm that R-spondin also induces iPAM cells from human ES cells differentiation, HUES1 cells were plated has single cells and differentiated in 15% FBS containing medium with or without Rspo3. qRT-PCR time course analysis for paraxial mesoderm progenitor markers expression was performed (FIG. 10).

mouse ES cells = test: Sequential differentiation of iPAM cells into paraxial mesoderm derivatives (staining, qRT-PCR); format: cell-based; conditions: DMSO 0.5%
Method: From day 0 to day 4, mouse ES cells were differentiated in presence of Rspo3, followed by 15% FBS medium until day 18. Cell types were identified by tissue-specific antibody staining, namely Muscle (Desmin, green), Endothelium (PECAM1/CD31, green) and Cartilage (Alcian Blue).
ES cells were cultured for 4 days in FBS15%, DMSO 0.5% and 10 ng/ml Rspo3 and then switched to FBS 15% or FBS 1% or FBS1% plus […] (Shh) and Retinoic acid (F1ShhRA) or plus Shh, Noggin and LiCl (F1SNLi). Cells were harvested the next day and analyzed by qRT-PCR for the dermal marker Dermol (A) and the muscle marker Myf5 (B). Graphs show fold enrichment.
Total RNA was extracted from ES cell cultures using a Trizol reagent (Invitrogen) or with the Rnaeasy plus mini-kit (Qiagen). RT-PCR was performed on 5 ng total RNA using QuantiFast SYBR Green RT-PCR Kit (Qiagen), appropriate primers and run on a LightCycler 480II (Roche). GAPDH was used as the internal control. […]
For example, between day0 to day4, ES cells were exposed to optimized differentiating conditions (ie. R-spondin3 10 ng/mL, DMSO 0.5%, in 15% FBS basal medium). […] At day 18, cell cultures were fixed and analyzed by tissue specific histochemical staining or immunofluorescence (FIG. 8). […] Cells were harvested the next day and analyzed by qRT-PCR for the dermal marker Dermo 1 and the muscle marker Myf5 (FIG. 9).

In the case of Cc1c[nH]c(-c2cnc(NCCNc3ccc(C#N)cn3)nc2-c2ccc(Cl)cc2Cl)n1 [CHIR99021, reference compound], the “efficiency in inducing YFP+ cells compared with Rspo-3” value (Msgn1RepV mES cells; after 4 days, 15% FBS medium) is reported as “as efficient as Rspo-3”.

With C[S+](C)[O-] [DMSO, Dimethyl sulfoxide] the “effect on YFP+ cells” value (Msgn1RepV mES cells; 0.5% DMSO in FBS-containing medium, 4 days in culture) was “positive effect on iPAM induction; also recorded: increase of YFP+ cells”.

B1: R-spondin2: secreted protein of the R-spondin family that activates Wnt signalling pathway; recombinant protein obtained commercially (R&D) (protein, UniProt Q6UXX9 22-243, looked up)
R-spondin-2: QGNRWRRSKRASYVSNPICKGCLSCSKDNGCSRCQQKLFFFLRREGMRQYGECLHSCPSGYYGHRAPDMNRCARCRIENCDSCFSKDFCTKCKVGFYLHRGRCFDECPDGFAPLEETMECVEGCEVGHWSEWGTCSRNNRTCGFKWGLETRTRQIVKKPVKDTILCPTIAESRRCKMTMRHCPGGKRTPKAKEKRNKKKKRKLIERAQEQHSVFLATDRANQ
For B1, the “effect on number of YFP+ cells” value (Msgn1RepV mES cells) is listed as “significantly increase the number of YFP+ cells” and the “potency to activate Wnt signaling versus Rspo1 and 4” value (Wnt signaling) is listed as “more potent”.

B2: R-spondin3: secreted protein of the R-spondin family that activates Wnt signalling pathway; recombinant protein obtained commercially (R&D) (protein, UniProt Q9BXY4 22-272, looked up)
R-spondin-3: QNASRGRRQRRMHPNVSQGCQGGCATCSDYNGCLSCKPRLFFALERIGMKQIGVCLSSCPSGYYGTRYPDINKCTKCKADCDTCFNKNFCTKCKSGFYLHLGKCLDNCPEGLEANNHTMECVSIVHCEVSEWNPWSPCTKKGKTCGFKRGTETRVREIIQHPSAKGNLCPPTNETRKCTVQRKKCQKGERGKKGRERKRKKPNKGESKEAIPDSKSLESSKEIPEQRENKQQQKKRKVQDKQKSVSVSTVH
For B2, the “induction of YFP+ cells” value (Msgn1RepV mES cells; 10 ng/mL, both in FBS based medium and KSR based medium) was “up to 70%”, the “YFP+ population of the total population” value (Msgn1RepV mES cells; 10 ng/mL, day 4 of differentiation, 15% FBS medium, flow cytometry) was “more than 70%” and the “effect on number of YFP+ cells” value (Msgn1RepV mES cells) was “significantly increase the number of YFP+ cells”. For the same molecule, the “luciferase (BAT-luc) activation, canonical Wnt response” value (canonical Wnt signaling) was “strongly activated”, the “luciferase (BAT-luc) activation, canonical Wnt response” value (canonical Wnt signaling; listed as Rspo3) was “strongly activates the canonical Wnt response” and the “expression of paraxial mesoderm progenitor markers Brachyury, PDGFRa, Tbx6 and Msgn1” value (HUES1 cells) was “induction of the paraxial mesoderm progenitor markers; also recorded: Strong activation of Msgn1 and Tbx6”. The “activation of dermal marker Dermo 1 and muscle marker Myf5 (qRT-PCR)” value (mouse ES cells; 4 days Rspo3 10 ng/mL, FBS15%, then switched medium, harvested next day) was “Significant activation of these markers”, the “tissue-specific staining of cultures at day 18” value (mouse ES cells; day0 to day4 R-spondin3 10 ng/mL, 15% FBS, then differentiation media until day 18) was “positive for Cartilage (Alcian blue positive nodules), Muscles (Desmin positive fibers) and Endothelium (CD31/PECAM1)” and the “potency to activate Wnt signaling versus Rspo1 and 4” value (Wnt signaling) was “more potent”.

B3: Dkk1: secreted extracellular Wnt antagonist, inhibitor of canonical Wnt signaling (protein, UniProt O94907 32-266, looked up)
Dickkopf-related protein 1: TLNSVLNSNAIKNLPPPLGGAAGHPGSAVSAAPGILYPGGNKYQTIDNYQPYPCAEDEECGTDEYCASPTRGGDAGVQICLACRKRRKRCMRHAMCCPGNYCKNGICVSSDQNHFRGEIEETITESFGNDHSTLDGYSRRTTLSSKMYHTKGQEGSVCLRSSDCASGLCCARHFWSKICKPVLKEGQVCTKHRRKGSHGLEIFQRCYCGEGLSCRIQKDHHQASNSSRLHTCQRH
In the case of B3, the “effect of supplementation of the medium on YFP+ induction” value (Msgn1RepV mES cells; 15% FBS medium, 4 days) is reported as “sharp decrease of YFP+ induction”.
